# Results taken from PMC2874613 (Traffic (Copenhagen, Denmark), 2010).
# T1: GST-[1-313]GGA3 (UniProt Q9NZ52 1-313)
# T1 sequence (looked up): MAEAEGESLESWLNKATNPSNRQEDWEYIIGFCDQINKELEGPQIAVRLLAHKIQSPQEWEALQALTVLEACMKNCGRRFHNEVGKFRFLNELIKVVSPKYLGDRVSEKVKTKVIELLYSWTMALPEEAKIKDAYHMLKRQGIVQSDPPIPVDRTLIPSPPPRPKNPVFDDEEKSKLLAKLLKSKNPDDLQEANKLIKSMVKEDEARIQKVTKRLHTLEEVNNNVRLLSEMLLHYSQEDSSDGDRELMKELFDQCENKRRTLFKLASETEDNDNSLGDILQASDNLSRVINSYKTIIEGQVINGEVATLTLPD
# Target: T1, GST-[1-313]GGA3
# Experiment: pull-down
row,Binder,percent of total Arf precipitated with GST-[1-313]GGA3
1,Arf1 expressed in HEK293T cells (human Arf1/pcDNA3.1) (natural protein) not shown,< 0.15 % of the total
2,Arf1-GFP expressed in HEK293T cells (human Arf1/pEGFPN1) (natural protein) not shown,> 0.3 % of the total
3,Arf1-HA expressed in HEK293T cells (natural protein) not shown,< 0.15 % of the total
